A protein production outcome set (Wang et al. 2014)

Experiment: label from the status in PepcDB records

| Sequence | protein production |
| --- | --- |
| MAGPTLLKESGPREVFCGLTSIVWLHRRMPDAFFLVVGSRTCAHLIQSAAGVMIFAEPRFGTAILSERDLAGLADAHEELDRVARELLQRRPEIRTLFLVGSCPSEVIKLDLARAAERLNDELQGRVRVVNYSGSGIETTFTQGEDGALAALVPLLPSSAERQLLLVGTLADAVEDRLIHLFGRLGIDRVRSLPPRQSTALPPVGPGTTVLLTQPFLTDTARLLRNRGATVLTAPFPLGAEGSRRWMEAAAQAFEVAPSHVATVLDPLMERARIALEPHREVLAGKRIFLLPESQLELPLARFLQRECGMELVEVGTPYLNREQMAEELALLPEGTPVMEGQHVELQLDRVRDSAPDLVVCGMGLANPLEAEGIATKWSIELVFSPIHGIDQAGDLAELFSRPLRRRQLIHPGLHPTQPDQPVHA | failed |
| MAGRVHPRQLAFSLPHAESLSRDNFLEGPANAAGLALIDGWPEWPNRIMWLAGPEGSGKSHLAAIWAEEAGARSTTANALSAAGVPGALATGALVVEDLKAKDFDERALFHLMNLAREDGAYVLFTGRDVPAALDIELNDLRSRLRAVPVVMLLPPDDQLFRGLIVKFCADRQLTVDESVVSYLATRLERSSAAARQAVELLDSEALRLGRPVTRALAAELLRDALEHHHHHH | not failed |
| MAGSGVPSHRSMVIKVSVFAVVMLLVAAGLVVVFGDFRFGPTTVYHATFTDASRLKAGQKVRIAGVPVGSVKAVKLNPDHSIDVAFAIDRSYTLYSSTRAVIRYENLVGDRFLEITSGPGELRKLPPGGTINVAHTQPALDLDALLGGLRPVLKGFDADKINTITSAVIELLQGQGGPLANVLADTGAFSAALGARDQLIGEVITNLNAVLATVDAKSAQFSASVDQLQQLVSGLAKNRDPIAGAISPLASTTTDLTELLRNSRRPLQGILENARPLATELDNRKAEVNNDIEQLGEDYLRLSALGSYGAFFNIYFCSVTIKINGPAGSDILLPIGGQPDPSKGRCAFAK | failed |
| MAGTNSERELLTEGPAIILAFPQLGENIGMVARAMANFGLSELRLVSPRDGWPSEKARSAASRADHVIDGAKLYETLEEALADLNFVYATTARDRDGFKPVRSPIVAARELRHRFKEGEKVGIIFGRERTGLTNAEVALADEIVTFPVNPAFASLNLAQAVLLMSYEWLKTGMTSEDETSFQASQQRPATKEQLHGLCEHLEEA | failed |
| MAGVITGFAIILSVIGVGFLLAKLGVINDDKQRLVLNRIAFYAATPALLFNVVARSDPSALISPVIVVTFVATIVTAAVYCVISAIFFKKDIATTATGAAASAYVNSNNIGLPVSIYVLGTGAYVAPILVMQMVIFAPMILAALTSGDVKGSRGQKIWAAVKGSLLSPIVLASIAGLIVCLLEIQLPAAVMEPTIILGGASIPLILMSFGASLPSTNVLASKADRPSVLTATAIKIVGMPAITWLIAKAFGLEGDYLYAAVILAALPAAQNVYNYAATYRKGEIVARDTVFLTTFLALLGMLGIAALFGR | not failed |
| MAHFSARLKLLSSNDGLSFGVDSRDQFRQSLYMAGGGSPLVPIRMSRLKFCARIFSSYSFPYKRKKIRDLDNTEKNLDIDEDNDEWDFDGDDDGLETDDHLSCFRGLVLDISYRPVNVVCWKRAICLEYMDKADVLEYYDQTVSSPTGSFYIPAVLRVPHLLQVVKRRRVKNSLSRKNILLRDDYTCQYCSSRENLTIDHVMPVSRGGEWTWQNLVAACSRCNSRKGQKTADEAHMKLLKVPKEPKDYDIVAIPLTNAAIRMLRSNKGMPEEWRQYLAKPLSET | failed |
| MAHNYLLEIGLEEIPAHVVTPSIKQLVQKVTAFLKENRLTYDSIDHFSTPRRLAIRINGLGDQQPDIEEDAKGPARKIAQDADGNWTKAAIGFTRGQGLTVDDITFKTIKGTDYVYVHKLIKGKMTKEILTGLKEVVESINFPTMMKWANFDFKYVRPIRWLVSILDEEVLPFSILDVTAGRRTEGHRFLGEAVELANAEEYEAKLHDQFVIVDADERKQLISNQIKAIAESNRWNVTPNPGLLEEVNNLVEWPTAFNGGFDEKYLAIPEEVLITSMRDHQRFFFVRDQAGKLLPNFISVRNGNEEFIENVVRGNEKVLTARLEDAAFFYEEDQKHDINYYVDRLKKVSFHDKIGSMYEKLQRVNSIAKVIGNTLNLNQTELDDIDRATMIYKFDLVTGMVGEFSELQGVMGEKYAQLNGENQAVAQAIREHYMPNSAEGDLPESVTGAVVALADKFDNIFSFFSAGMIPSGSNDPYALRRHAYGIVRILNSRDWQLDLNQFKSQVKTELAENGTAFGVDVDQNFDQVLNFFNDRIKQLLDHQKISHDIVETVLTGNNHDVTEIIEAAQVLADAKASSTFKDDIEALTRVQRIATKNEESGELNVDPQLFNNASEGELFDQIIKIEAANNLTMSQLFAKLCELTPAISKYFDATMVMDKDENIKRNRLNMMSRLANLILKIGDLTNVLVK | failed |
| MAIAHTYRRYLDYLRQDRGLAKNSLLVYGPFIRDFLDSHSAGDGSLLPDAFDAVTIRNHLLARSKGRSAEYTRLMAVALRSFCHFLFLRGDTARDLAGSVLEHHHHHH | failed |
| MAIARHRSFSRAAIELGVSASALSHALKGLETRLGVRLLNRTTKSVTPTAAGEELVQSVLQPFDTIEGALESLNRYRNTPTGRIRINAAVEAANLLLAPVMPAFMDRYPDIEIDIVASNRMVDVTDAGFDAGIRYGGTVPEDMVARRLSADIRWVIAASPDYLERYGTPEHPDDLLHHRCISNRLGDDRVYRWELARDGETYQMTVPGSVTVNHAETGLVAVLGGAGLMYFPEPLVAPYVKDGRLRLVLTEWSPLEEGFHIYYSSRRQLPTGLRLLIEFIQEARPLGL | failed |
| MAICESGALPSHVGALSYSGGAASSFFGRRNADGLNDKWLALRDAFRAAGGDLLAIEDARSAALDFVIHVNAHRLRHDVPAFVILAESEFIHPPNVDWRMLQQYKGIFTWMPDLVRRGIGTEICLAHPLGAGVVDGYQERPQLLVMIASNKALPVWRPAVDLYRERVRAIRWFEKHAPQAFALYGHDWDKSPRLPTPLGGIVHGVEFVLPWRLQWFPSWKGVIPSKREVLRHARFSLCYENVRGLRGYITEKIFDAFCAGNVPVYWGAEDITDYIPADCFIDRRAFGDYADLYRYLTSMPETRYIQYQQAICDFLVSPAAKRFSSEIFATTIVGKVLDTLGRRDELEHHHHHH | failed |
| MAIDPNSIGAVTEPMLFEWTDRDTLLYAIGVGAGTGDLAFTTENSHGIDQQVLPTYAVICCPAFGAAAKVGTFNPAALLHGSQGIRLHAPLPAAGKLSVVTEVADIQDKGEGKNAIVVLRGRGCDPESGSLVAETLTTLVLRGQGGFGGARGERPAAPEFPDRHPDARIDMPTREDQALIYRLSGDRNPLHSDPWFATQLAGFPKPILHGLCTYGVAGRALVAELGGGVAANITSIAARFTKPVFPGETLSTVIWRTEPGRAVFRTEVAGSDGAEARVVLDDGAVEYVAG | not failed |
| MAIDSKPHDDLQLFKTNLHPCGYWPDRWASDLVMDPNDPRLGAIYPQTLAWGFRRSGNLLYRPHCEHCNACVPVRVNVNAFVPNRSQRRCLARNATLVTRIVPAERNAEQLSLYRRYLHQRHPDGGMDGHGAIEFDQFLIGPWGYGRFMEIREPATNGTPGQLLAVAVTDLTHQALSAVYTFYEPNAAARGLGTLAILHQIHWAQREQRPYLYLGYWIKDHFKMDYKRRFQKLEIYDGYRWRPFSTTYPTTHTLLEHHHHHH | not failed |
| MAIDTNSSTPLVSVITPTYNRPNYLQAALTSAVRQTYSHIEIIVCDNCSPQNPQAIVDSFDDSRIRFFRNSSNMGMFANTIKAFKMARGKYVACLLDDDLWEEDFLEKLVPPLEANPNLALAFCDHYIMDANGNIDDALTEEYSRSYKRVDLPEGIYQPFYRMGLVDRSVSTATAAVMRRDAIAWDAIPAEVGGSWDIYLNYLCCRSGLGAYFYPEKLTRYRVHEQTETMLSGKRDAQAKIRKAQADMFCYEQFMADERLQELKPYFQQQWAHVSTTLGIGFMRSKQMKLARSYFWRSLKQSLKLRTMAGLMLSFTPPTIASRF | failed |
| MAIETAILEKIKQYQTIIIHRHQRPDPDCIGSQLALRAILRASFPEKTVVAVGKHYPGFDWMGQADQEVSDDTYHQALVIVVDTANQPRVDDERWQTGAAVIKIDHHPNDDAFGDLQWVLPQASSTSEIIYDWFEANHADLTMPDDAARLLYAGIVGDTGRFMYPATSANTFAVAGKLLAYDFSMTAVNQAEDEISPEMARLSAYAYQNLEILPSGAAYLKLTDEIVESFGLAASDSTSAIVPLPGKITSVVAWAIFVESKDKTFRVRLRSKGPSINELAKRHGGGGHALASGAAAKDQAEIDQVIHELDQLVADTKGENELEHHHHHH | not failed |
| MAIGERIHFFRLLRGMTQKYLGTAVGFPERSADVRLAQYETGSRKPKADLTAALAQVLDVSPQALDVPDIDSQIGLMHTLFTLEDVYGLTISEADGEVCLKVNKDKGKKAYELLQMLYVWKEQADKLSAGEISKDDYDRWRYYYPKYDTTQLWAKVPSQQLSDTLVEAFQDKLKKDELEHHHHHH | failed |
| MAIGSLSSLGLGSKVLNYDVIDKLKDADEKALIAPLDKKMEQNVEKQKALVEIKTLLSALKGPVKTLSDYSTYISRKSNVTGDALSASVGVGVPIQDIKVDVQNLAQGDI | failed |
| MAIKAGKVLRTATAAARKFQQKQFSASSSAFPEPPPVSPSSGVGAFLGIPKIIRSESDLLVSKYIRIAQGRLTKKGDYTEEKLKKMLSGEDRVGIGETMKLLEGRNTGLVSSKKPNSGRSKK | failed |
| MAIKGPRKHLKRLAAPANWQLPRKVKTFTVRPSPGPHSMDKSLPLLLVVRDVLKYADNAREAKKIIQTGKILIDGLKRKEYKHPAGLMDVLSIPEMDETYLVLFDESGRISLKKTDKTDVKLCKIVNKTVVKGGNIQLNLHDGRNQIVKVSDAAKAEEDVYKTGDSVLISIPEQSIAGHVAFGEGKLAYITGGKHVGEFAKIVEVENRALYSDIVTLENKDGEKFKTVKPYVFIVGQDEPVISMLEHHHHHH | not failed |
| MAIKNAFYAQSGGVTAVINASACGVIQTARKHPDQIGKVYAGRNGIIGALKEELIDTSLESDDAIQALIHTPGGAFGSCRYKLKNISENQREYERLIEVFRAHDIGYFFYNGGGDSQDTAYKVSQLADRMGYPITCIGVPKTVDNDLPFTDCCPGFGSVAKYIATSTLEASLDIKSMCETSTKVFILEVMGRHAGWIAAAGGLAGQSEGEPPHVILFPEIPFNREKFLERVDQCVRDYGYCVVVASEGAQYEDGRFVADAGAKDAFGHTQLGGVAPALANMVKQALGHKYHWAVADYLQRAARHIASATDVEQAYAVGKAAVEMALAGKQALMPTIVRDQAKPYRWSIGEANLSEVANQEKKMPIHYITDNGFGITQDCRDYLQPLIAGESFPPFDDGLPRVAKLKNQLVEKKLRTEFELLEHHHHHH | failed |
| MAINPNPRSVVAVRATVPEDAFTAGALGTLREGSGVVIRNDGLVLTIGYLITEAEEVWLTAYDGRVIPAHALAYDQESGFGLVQALAPTGLPAVALGDAGKARIGDAVVLADGIGRAVEAKIVTKQEFAGYWEYLLDEAIFIAPAHPSWGGAPLFGADGALLGIGSLRLQMSRAGEVADINMVVPIDLLPPILDDLLTRGQVAKPPRPWLGALSAESDGKVVVMSVTEGGPAAKAGLRQGDVISEVRDGAVDGLADFYRKLWDSGSAGAEIPMRVVRDGRETWLRVKSADRGSFLKKPQLQ | failed |
| MAISVFDLFKIGIGPSSSHTVGPMRAAALFTAALRQRQALSAVRRLEVRLYGSLSATGVGHGTDRAVIMGLMGEWPDRIDPTQIAPRMAALLDSGLLQLDGRVAVPFDWVRDMRLLDENLPYHPNAMTLVAYGEQGELHQETYYSVGGGFVVDAAQAASGQLDQDHTVLPYDFSSAEELLLLCKRHNLRVSELMLANERIWRSETDIREGLRRIWQAMRDCVDNGLRNEGILPGGLNVQRRAARLHRNLQEIGKPNVIGSTLSAMEWVNLFALAVNEENAAGGRMVTAPTNGAAGIIPAVLHYYMKFNPDAQDRDVVDYLLAAAAVGILCKKNASISGAEVGCQGEVGSACAMAAAGLAEVLGATPAQVENAAEIGLEHNLGLTCDPVGGLVQVPCIERNAIAAVKAINAAQMALRGDGQHFISLDKVIRTMRDTGADMHDKYKETSRGGLAVNAIE | failed |
